T1: hTie2 Ig3-Fn3 D682C/N691C (constitutive Tie2 dimer) (human, UniProt Q02763 349-738, Covalent homodimer: two copies of this chain joined by two intermolecular disulfide bonds between the introduced cysteines (C682 of one chain with C691 of the other); one copy is given.)
T1 construct: The positions count on full-length human Tie2; the Ig3-Fn3 entry is used; also called Tie2 dimeric mutant; hTie2 Ig3-Fn3 N691C/D682C
T1 chain: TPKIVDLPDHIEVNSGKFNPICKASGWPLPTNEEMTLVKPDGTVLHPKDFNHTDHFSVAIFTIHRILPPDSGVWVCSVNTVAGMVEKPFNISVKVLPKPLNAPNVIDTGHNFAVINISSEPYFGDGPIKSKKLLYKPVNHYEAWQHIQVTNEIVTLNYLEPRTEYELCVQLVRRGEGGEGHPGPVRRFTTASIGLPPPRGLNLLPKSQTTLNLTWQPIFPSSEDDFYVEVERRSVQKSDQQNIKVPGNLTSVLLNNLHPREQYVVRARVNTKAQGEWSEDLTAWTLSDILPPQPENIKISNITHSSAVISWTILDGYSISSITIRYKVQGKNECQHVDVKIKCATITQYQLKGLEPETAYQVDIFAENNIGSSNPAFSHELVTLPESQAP

B1: Human Tie2 ECD (residues 23-735 of human Tie2) (receptor, UniProt Q02763 23-735, looked up)
chain: AMDLILINSLPLVSDAETSLTCIASGWRPHEPITIGRDFEALMNQHQDPLEVTQDVTREWAKKVVWKREKASKINGAYFCEGRVRGEAIRIRTMKMRQQASFLPATLTMTVDKGDNVNISFKKVLIKEEDAVIYKNGSFIHSVPRHEVPDILEVHLPHAQPQDAGVYSARYIGGNLFTSAFTRLIVRRCEAQKWGPECNHLCTACMNNGVCHEDTGECICPPGFMGRTCEKACELHTFGRTCKERCSGQEGCKSYVFCLPDPYGCSCATGWKGLQCNEACHPGFYGPDCKLRCSCNNGEMCDRFQGCLCSPGWQGLQCEREGIQRMTPKIVDLPDHIEVNSGKFNPICKASGWPLPTNEEMTLVKPDGTVLHPKDFNHTDHFSVAIFTIHRILPPDSGVWVCSVNTVAGMVEKPFNISVKVLPKPLNAPNVIDTGHNFAVINISSEPYFGDGPIKSKKLLYKPVNHYEAWQHIQVTNEIVTLNYLEPRTEYELCVQLVRRGEGGEGHPGPVRRFTTASIGLPPPRGLNLLPKSQTTLNLTWQPIFPSSEDDFYVEVERRSVQKSDQQNIKVPGNLTSVLLNNLHPREQYVVRARVNTKAQGEWSEDLTAWTLSDILPPQPENIKISNITHSSAVISWTILDGYSISSITIRYKVQGKNEDQHVDVKIKNATITQYQLKGLEPETAYQVDIFAENNIGSSNPAFSHELVTLPES
notes: range 23-735; also called hTie2 ECD; hTie2
B2: hTAAB, hTie2-activating mouse monoclonal antibody (mouse IgG1) (antibody, V domains shown)
VH: QVQLQQPGAELVRPGASVKLSCKASGYSFTSYWMNWVKQRPGQGLEWIGMIHPSDSETRLNQKFMDKATLTVDKSSSTAYMQLSSPTSEDSAVYYCARGLYGNSWGQGTLVTVSA
VL: DIQMTQSPSSLSASLGERVSLTCRASQDIGISLNWLQQEPDGTIKRLIYATSSLDSGVPKRFSGSRSGSDYSLTISSLESEDFVDYYCLQYASSPYTFGGGTKLEIK
notes: Mouse IgG1 from hybridoma; Only the variable regions are tied to the whole antibody; also called mouse hTAAB; parental hTAAB
B3: 3H7H12G4 (previously reported humanized antibody 3H7) (antibody, V domains shown)
VH: QVQLVQSGAEVKKPGASVKVSCKASGYTFTSYWMNWVRQAPGQGLEWMGMIHPSDSETRLNQKFMDRVTMTRDTSTSTVYMELSSLRSEDTAVYYCARGLYGNSWGQGTLVTVSS
VL: DIQMTQSPSSLSASVGDRVTITCRASQDIGISLNWLQQEPGKAPKRLIYATSSLDSGVPKRFSGSGSGTEFTLTISSLQPEDFATYYCLQYASSPYTFGQGTKVEIK

Data set [1] deals with the molecule itself. In words: SEC-MALS (self-association). (In general: Size exclusion chromatography separates by hydrodynamic size, large species first.)
The target of data set [2] is B1. The experiment in a line: SPR (Biacore T200), hTie2 ECD amine-coupled on CM5, antibody as analyte, 1:1 model. The protocol: HEPES-buffered saline (0.01 M HEPES and 0.15 M NaCl) containing 3 mM EDTA (ethylenediaminetetraacetic acid) and 0.05% (v/v) P20 detergent (HBS-EP+) was used as reaction and running buffer (BR100669, GE Healthcare). Human Tie2 ECD (produced in-house; residues 23-735 of human Tie2, GenBank accession number: AAH35514.2) was immobilized on the surface of a CM5 sensor chip by amine coupling using 10 mM acetate at a pH of 5.5. […] Analytes bound to the sensor chips were dissociated by washing with HBS-EP+running buffer for 300 seconds. Both association (Kₒₙ, M⁻¹s⁻¹) and dissociation (Koff, s⁻¹) constants were measured at 300-second intervals. The equilibrium dissociation constant (KD, M) was calculated as the ratio of off-rate to on-rate (Koff/kₒₙ). Kinetic parameters were determined with the global fitting function of Biacore Insight Evaluation Software using a 1:1-binding model.
After purification, binding kinetics of the obtained antibodies to hTie2 ECD were evaluated using SPR.

In data set [3] the target is T1, hTie2 Ig3-Fn3 D682C/N691C (constitutive …). In words: size-exclusion chromatography and negative-stain EM of the complex.
Source text: The two residues D682 and N691 involved in the homotypic Fn3-Fn3′ interaction were mutated to cysteines (D682C and N691C) to introduce a disulfide bond (FIGS. 6d and e). […] After removal of aggregates by SEC, the structural arrangement of the resulting complex (peak of the shoulder) was examined using negative-stain electron microscopy (EM) (FIGS. 6f and 7).
The target of data set [4] is B1. The experiment in a line: SPR (Biacore), hTie2 ECD immobilised on the chip (y axis 'RU (Tie2 ECD)'), antibody as analyte at 128, 256, 512, 1024 and 2048 nM, 1:1 binding model [panel i]. (In general: In SPR one partner is held on a chip, and binding of the other changes the refractive index at the surface.)

Consider B1, for which the binding result in data set [1] was “no binding (tested: 1 mg/ml)”.
For the molecule B2, in data set [2], the Kd – broadly, the free concentration of one partner at which half of the binding sites on the other are occupied at equilibrium, for simple one-to-one binding – came out at 4.2 nM; the koff (commonly the first-order rate constant of dissociation) stood at 0.0006 s⁻¹; the on-rate (kon) (in general, a measure of how fast the partners come together) worked out at 140000 M⁻¹ s⁻¹. The binding result in data set [3] was “binds”.
As to B3, in data set [4], the Kd is 1100 nM, the koff was 0.003 s⁻¹ and the on-rate constant (kon) amounted to 2800 M⁻¹ s⁻¹.
